Experimental data published in PMC12297318, “Removal of promoter CpG methylation by epigenome editing reverses HBG silencing”.

What was measured:
[1] = biological target: MBD2sc Y178F (UniProt Q9UBB5 150-393+Q86YP4:138-178, Y178F;internal_change); assay: EMSA; Protein at 50x molar excess over probe, 10 min at room temperature; binding buffer not stated (protein storage: 10 mM Tris-HCl pH 7.5, 150 mM NaCl, 1 mM EDTA, 1 mM PMSF, 10% glycerol); 6% native PAGE in TBE (45 mM Tris, 45 mM boric acid, 1 mM EDTA) at 4 C; details: protein: recombinant; tags: pET32a vector tags (Ni-NTA purified); label: 32P 5' end of antisense strand; blunt
[2] = biological target: MBD2sc WT (MBD2 MBD-IDR-CC fused to GATAD2A CC) (UniProt Q9UBB5 150-393+Q86YP4:138-178, internal_change); assay: as above; details: protein: recombinant; tags: pET32a vector tags (Ni-NTA purified); label: 32P 5' end of antisense strand; blunt
MBD2sc WT (MBD2 MBD-IDR-CC fused to GATAD2A CC), sequence (Q9UBB5 other isoform, or with tags, fused parts or gaps): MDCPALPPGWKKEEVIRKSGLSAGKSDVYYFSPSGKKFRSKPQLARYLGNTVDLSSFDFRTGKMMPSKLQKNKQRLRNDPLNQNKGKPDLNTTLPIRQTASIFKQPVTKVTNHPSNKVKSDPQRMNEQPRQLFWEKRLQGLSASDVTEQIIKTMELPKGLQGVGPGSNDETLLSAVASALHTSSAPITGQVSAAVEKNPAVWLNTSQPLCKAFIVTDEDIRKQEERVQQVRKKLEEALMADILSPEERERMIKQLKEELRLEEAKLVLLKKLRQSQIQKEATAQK

MBD2sc Y178F, sequence (Q9UBB5 other isoform, or with tags, fused parts or gaps Y178F/| Y178F Y178F): as the sequence (Q9UBB5 other isoform, or with tags, fused parts or gaps) above, with Y29F counted along it

| Binder | binding result [1] | binding result [2] |
| --- | --- | --- |
| HBG -53/-50 CpG sites, methylated (dsDNA, 5-methyl-dC at positions 14 and 17 of sense and 14 and 17 of antisense) DNA 1: TGAGGCCAGGGGCCGGCGGCTGGCTAGGGAT DNA 2: ATCCCTAGCCAGCCGCCGGCCCCTGGCCTCA | no binding | binds |
| HBG -53/-50 CpG sites, unmethylated (dsDNA) DNA 1: TGAGGCCAGGGGCCGGCGGCTGGCTAGGGAT DNA 2: ATCCCTAGCCAGCCGCCGGCCCCTGGCCTCA | – | no binding |
| BCAT1 promoter CpG sites, methylated (dsDNA, 5-methyl-dC at sense positions 2,11,13,16,24,26,34 and antisense positions 21,29,31,39,42,44,53) DNA 1: CCGGCCCTCTCGCGGCGGAGACTCGCGACCTAGCGGATTGCATCAGCAGGAAGAC DNA 2: GTCTTCCTGCTGATGCAATCCGCTAGGTCGCGAGTCTCCGCCGCGAGAGGGCCGG | no binding | binds |
| BCAT1 promoter CpG sites, unmethylated (dsDNA) DNA 1: CCGGCCCTCTCGCGGCGGAGACTCGCGACCTAGCGGATTGCATCAGCAGGAAGAC DNA 2: GTCTTCCTGCTGATGCAATCCGCTAGGTCGCGAGTCTCCGCCGCGAGAGGGCCGG | – | no binding |
